Measured values published in patent publication KR20210116113A.

Key:
c-Myc 펩타이드 (…) [1] = target: T1, c-Myc 펩타이드 (…); assay: ELISA, c-Myc peptide coated at 2 ug/ml, scFv at 2 ug/ml (replicate), anti-HA peroxidase detection
T1 sequence (peptide): MPLNVSFTSRNYDLD

c-Myc 펩타이드 (…) [2] = target: T1, c-Myc 펩타이드 (…); assay: ELISA, c-Myc peptide coated at 2 ug/ml, scFv at 1 ug/ml (replicate), anti-HA peroxidase detection
c-Myc 펩타이드 (…) [3] = target: T1, c-Myc 펩타이드 (…); assay: ELISA, c-Myc peptide coated at 2 ug/ml, scFv at 2 ug/ml, anti-HA peroxidase detection
c-Myc 펩타이드 (…) [4] = target: T1, c-Myc 펩타이드 (…); assay: ELISA, c-Myc peptide coated at 2 ug/ml, scFv at 4 ug/ml (replicate), anti-HA peroxidase detection
c-Myc 펩타이드 (…) [5] = target: T1, c-Myc 펩타이드 (…); assay: ELISA, c-Myc peptide coated at 2 ug/ml, scFv at 0.5 ug/ml, anti-HA peroxidase detection
c-Myc 펩타이드 (…) [6] = target: T1, c-Myc 펩타이드 (…); assay: ELISA, c-Myc peptide coated at 2 ug/ml, scFv at 0.5 ug/ml (replicate), anti-HA peroxidase detection
c-Myc 펩타이드 (…) [7] = target: T1, c-Myc 펩타이드 (…); assay: ELISA, c-Myc peptide coated at 2 ug/ml, scFv at 1 ug/ml, anti-HA peroxidase detection
c-Myc 펩타이드 (…) [8] = target: T1, c-Myc 펩타이드 (…); assay: ELISA, c-Myc peptide coated at 2 ug/ml, scFv at 4 ug/ml, anti-HA peroxidase detection

- absorbance at 450 nm (antigen(peptide) coating) (c-Myc 펩타이드 (…) [1]): 1.3 OD 450nm
- delta (absorbance at 450 nm minus background control) (c-Myc 펩타이드 (…) [1]): 1.25 OD 450nm
- absorbance at 450 nm (antigen(peptide) coating) (c-Myc 펩타이드 (…) [2]): 0.788 OD 450nm
- delta (absorbance at 450 nm minus background control) (c-Myc 펩타이드 (…) [2]): 0.735 OD 450nm
- absorbance at 450 nm (antigen(peptide) coating) (c-Myc 펩타이드 (…) [3]): 1.31 OD 450nm
- delta (absorbance at 450 nm minus background control) (c-Myc 펩타이드 (…) [3]): 1.26 OD 450nm
- absorbance at 450 nm (antigen(peptide) coating) (c-Myc 펩타이드 (…) [4]): 2.17 OD 450nm
- delta (absorbance at 450 nm minus background control) (c-Myc 펩타이드 (…) [4]): 2.11 OD 450nm
- absorbance at 450 nm (antigen(peptide) coating) (c-Myc 펩타이드 (…) [5]): 0.415 OD 450nm
- delta (absorbance at 450 nm minus background control) (c-Myc 펩타이드 (…) [5]): 0.363 OD 450nm
- absorbance at 450 nm (antigen(peptide) coating) (c-Myc 펩타이드 (…) [6]): 0.431 OD 450nm
- delta (absorbance at 450 nm minus background control) (c-Myc 펩타이드 (…) [6]): 0.379 OD 450nm
- absorbance at 450 nm (antigen(peptide) coating) (c-Myc 펩타이드 (…) [7]): 0.808 OD 450nm
- delta (absorbance at 450 nm minus background control) (c-Myc 펩타이드 (…) [7]): 0.756 OD 450nm
- absorbance at 450 nm (antigen(peptide) coating) (c-Myc 펩타이드 (…) [8]): 2.15 OD 450nm
- delta (absorbance at 450 nm minus background control) (c-Myc 펩타이드 (…) [8]): 2.1 OD 450nm
B1: clone 1D1 항체 (scFv, anti-c-Myc-tag 1D1) (scFv)
scFv: LTQPSSVSANLGETQDHCSGGGSNSAYGWFQQKSPGSAPVTLIYDNTNRPSNIPSRFSGSKSGSTATLTITGVQADDEAVYYCGSAGSSYVGIFGAGTTLTVLGQSSRSSSGGGSSGGGGSAVTLDESGGGLQTPGGGLSLVCKGSGFTFSSYQMNWIRQAPGKGLEFVAAINRFGNRTGYGAAVKGRATISRGDGQSTVRLQLNNLRAEDTATYYCAKAAYGYCGSGGWRDVAGTDAWGHGTEVIVSSTS
